# Test results published in IntAct's records for PubMed 28827714.
# B1: Interleukin-17F (Homo sapiens), Q96PD4 (parent)
# chain: MTVKTLHGPAMVKYLLLSILGLAFLSEAAARKIPKVGHTFFQKPESCPPVPGGSMKLDIGIINENQRVSMSRNIESRSTSPWNYTVTWDPNRYPSEVVQAQCRNLGCINAQGKEDISMNSVPIQQETLVVRRKHQGCSVSFQLEKVLVTVGCTCVTPVIHHVQ
# B2: Interleukin-17F (Homo sapiens), Q96PD4 (parent)
# chain: B1 chain
# partner: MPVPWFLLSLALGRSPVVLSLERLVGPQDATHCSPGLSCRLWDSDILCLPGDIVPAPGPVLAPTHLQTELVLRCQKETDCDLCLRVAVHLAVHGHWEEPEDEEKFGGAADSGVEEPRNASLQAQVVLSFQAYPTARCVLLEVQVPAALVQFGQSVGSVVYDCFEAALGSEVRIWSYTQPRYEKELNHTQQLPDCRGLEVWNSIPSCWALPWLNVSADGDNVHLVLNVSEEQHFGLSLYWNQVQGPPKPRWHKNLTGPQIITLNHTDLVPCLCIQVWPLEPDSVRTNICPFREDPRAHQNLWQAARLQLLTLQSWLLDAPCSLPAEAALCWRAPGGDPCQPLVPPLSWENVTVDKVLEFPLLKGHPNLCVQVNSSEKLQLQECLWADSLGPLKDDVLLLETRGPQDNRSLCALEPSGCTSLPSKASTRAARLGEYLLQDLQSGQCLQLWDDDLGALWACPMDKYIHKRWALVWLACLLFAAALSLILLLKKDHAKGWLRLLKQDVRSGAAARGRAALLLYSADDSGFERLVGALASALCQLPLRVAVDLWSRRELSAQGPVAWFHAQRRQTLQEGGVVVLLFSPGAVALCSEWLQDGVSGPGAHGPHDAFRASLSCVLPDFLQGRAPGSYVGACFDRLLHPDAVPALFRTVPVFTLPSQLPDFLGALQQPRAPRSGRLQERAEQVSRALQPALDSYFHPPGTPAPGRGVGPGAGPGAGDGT
# Variants of: B1
# Details: with IL17RA
row,effect of a mutation on the interaction,Variant
1,decreasing interaction strength,MTVKTLHGPAMVKYLLLSILGLAFLSEAAARKIPKVGHTFFQKPESCPPVPGGSMKLDIGIINENQRVSMSRNIESASTSPWNYTVTWDPNRYPSEVVQAQCRNLGCINAQGKEDISMNSVPIQQETLVVRRKHQGCSVSFQLEKVLVTVGCTCVTPVIHHVQ [R77A]

# Variants of: B2
# Details: with IL17RC
row,effect of a mutation on the interaction,Variant
1,decreasing interaction strength,MTVKTLHGPAMVKYLLLSILGLAFLSEAAARKIPKVGHTFFQKPESCPPVPGGSMKLDIGIINENQRVSMSRNIESASTSPWNYTVTWDPNRYPSEVVQAQCRNLGCINAQGKEDISMNSVPIQQETLVVRRKHQGCSVSFQLEKVLVTVGCTCVTPVIHHVQ [R77A]
